Read-outs that look alike come from different tables or passages of the source.
Assays:
PVR (Homo sapiens) [1] = biological target: PVR (Homo sapiens) (UniProt P15151); settings: cited from earlier work
PVR (Homo sapiens) [2] = biological target: PVR (Homo sapiens) (UniProt P15151); settings: cited from earlier work; remark: listed apart in the source
nectin-2 (Homo sapiens) = nectin-2 (Homo sapiens) (UniProt Q92692); settings: cited from earlier work
[3] = biological target: T1, wild-type PVR fused with EGFP, extracted membrane protein (human), P15151; experiment: MST; extracted membrane protein of PVR or PVR mutants fused with EGFP (quantified by EGFP fluorescence) as the fluorescent partner; TIGIT-His serially diluted two-fold from 25 μM to 0.000153 μM; settings: remark: other sources report otherwise
T1 chain: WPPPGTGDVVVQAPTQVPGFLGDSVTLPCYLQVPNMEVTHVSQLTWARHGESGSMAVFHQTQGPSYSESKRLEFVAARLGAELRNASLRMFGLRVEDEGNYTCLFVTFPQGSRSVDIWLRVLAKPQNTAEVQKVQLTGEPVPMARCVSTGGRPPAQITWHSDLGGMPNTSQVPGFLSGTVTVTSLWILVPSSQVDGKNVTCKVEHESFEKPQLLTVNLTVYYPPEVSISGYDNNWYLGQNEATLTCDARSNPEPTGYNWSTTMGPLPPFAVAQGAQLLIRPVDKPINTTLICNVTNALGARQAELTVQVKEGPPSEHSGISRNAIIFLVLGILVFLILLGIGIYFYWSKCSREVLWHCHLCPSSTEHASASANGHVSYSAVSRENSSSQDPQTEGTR

[4] = biological target: T2, PVR mutant S132Q fused with EGFP, extracted membrane protein (human, UniProt P15151 21-417, S132Q); experiment: as above; settings: one partner purified
T2 construct: poliovirus receptor (PVR, CD155), human; Probably the full-length membrane protein; also called PVRS132Q; source: membrane protein extracted, quantified by EGFP fluorescence
T2 sequence (looked up): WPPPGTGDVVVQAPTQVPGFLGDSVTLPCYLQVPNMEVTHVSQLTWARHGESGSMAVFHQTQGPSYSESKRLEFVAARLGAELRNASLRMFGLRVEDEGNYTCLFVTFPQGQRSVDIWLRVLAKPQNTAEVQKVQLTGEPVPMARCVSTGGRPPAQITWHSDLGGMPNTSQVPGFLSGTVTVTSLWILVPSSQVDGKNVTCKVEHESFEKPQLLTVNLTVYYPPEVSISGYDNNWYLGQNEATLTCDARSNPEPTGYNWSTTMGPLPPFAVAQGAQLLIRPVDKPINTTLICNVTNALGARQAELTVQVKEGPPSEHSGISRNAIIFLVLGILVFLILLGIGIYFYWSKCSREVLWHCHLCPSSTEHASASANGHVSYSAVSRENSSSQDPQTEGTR

[5] = biological target: T3, PVR mutant S72W fused with EGFP, extracted membrane protein (human, UniProt P15151 21-417, S72W); experiment: as above; settings: one partner purified
T3 construct: poliovirus receptor (PVR, CD155), human; Probably the full-length membrane protein; also called PVRS72W; source: membrane protein extracted, quantified by EGFP fluorescence
T3 sequence (looked up): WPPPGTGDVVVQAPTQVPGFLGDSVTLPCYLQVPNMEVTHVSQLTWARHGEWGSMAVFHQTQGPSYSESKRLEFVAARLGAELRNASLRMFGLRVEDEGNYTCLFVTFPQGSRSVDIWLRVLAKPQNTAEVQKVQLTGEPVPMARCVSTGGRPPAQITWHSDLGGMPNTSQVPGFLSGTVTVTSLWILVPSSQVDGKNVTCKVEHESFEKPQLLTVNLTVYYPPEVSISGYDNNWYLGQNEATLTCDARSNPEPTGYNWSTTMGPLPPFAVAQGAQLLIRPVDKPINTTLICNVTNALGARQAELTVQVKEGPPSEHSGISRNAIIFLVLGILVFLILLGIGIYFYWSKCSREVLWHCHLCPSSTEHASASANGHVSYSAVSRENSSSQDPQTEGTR

[6] = biological target: T4, PVR mutant S72R fused with EGFP, extracted membrane protein (human, UniProt P15151 21-417, S72R); experiment: as above; settings: one partner purified
T4 construct: poliovirus receptor (PVR, CD155), human; Probably the full-length membrane protein; also called PVRS72R; source: membrane protein extracted, quantified by EGFP fluorescence
T4 sequence (looked up): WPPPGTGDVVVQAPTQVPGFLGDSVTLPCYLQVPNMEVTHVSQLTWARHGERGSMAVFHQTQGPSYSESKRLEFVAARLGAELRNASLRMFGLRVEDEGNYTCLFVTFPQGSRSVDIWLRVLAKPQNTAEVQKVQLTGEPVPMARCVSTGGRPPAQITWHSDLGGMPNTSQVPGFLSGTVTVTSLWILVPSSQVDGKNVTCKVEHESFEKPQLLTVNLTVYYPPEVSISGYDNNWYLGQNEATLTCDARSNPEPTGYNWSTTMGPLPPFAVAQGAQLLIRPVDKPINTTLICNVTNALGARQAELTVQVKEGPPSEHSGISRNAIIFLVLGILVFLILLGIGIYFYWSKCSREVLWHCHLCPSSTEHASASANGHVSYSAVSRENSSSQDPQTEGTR

[7] = biological target: T5, PVR mutant G131V fused with EGFP, extracted membrane protein (human, UniProt P15151 21-417, G131V); experiment: as above; settings: one partner purified
T5 construct: poliovirus receptor (PVR, CD155), human; Probably the full-length membrane protein; also called PVRG131V; source: membrane protein extracted, quantified by EGFP fluorescence
T5 sequence (looked up): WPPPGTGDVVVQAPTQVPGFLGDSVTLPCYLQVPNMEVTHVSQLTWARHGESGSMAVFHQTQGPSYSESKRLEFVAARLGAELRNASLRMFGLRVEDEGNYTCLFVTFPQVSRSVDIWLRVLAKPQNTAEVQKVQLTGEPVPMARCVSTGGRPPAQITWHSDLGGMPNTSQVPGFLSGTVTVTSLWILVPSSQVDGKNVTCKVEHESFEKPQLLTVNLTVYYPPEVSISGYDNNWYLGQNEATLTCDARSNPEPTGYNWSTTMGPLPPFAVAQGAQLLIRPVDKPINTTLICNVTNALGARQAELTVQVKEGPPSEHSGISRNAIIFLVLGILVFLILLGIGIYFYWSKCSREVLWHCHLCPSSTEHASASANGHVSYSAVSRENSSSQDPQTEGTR

Sequence of nectin-2 (Homo sapiens) (Q92692 32-360): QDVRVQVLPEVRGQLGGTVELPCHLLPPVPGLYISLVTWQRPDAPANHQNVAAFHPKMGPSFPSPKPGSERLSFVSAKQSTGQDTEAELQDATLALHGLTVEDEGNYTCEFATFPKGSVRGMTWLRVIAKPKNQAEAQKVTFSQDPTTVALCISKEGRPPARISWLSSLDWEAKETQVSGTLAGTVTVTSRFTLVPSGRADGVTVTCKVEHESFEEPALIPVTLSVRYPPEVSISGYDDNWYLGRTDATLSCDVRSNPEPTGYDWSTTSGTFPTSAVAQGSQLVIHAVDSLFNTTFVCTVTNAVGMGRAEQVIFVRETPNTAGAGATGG

In the case of CD96 (from UniProt P40200), the Kd (PVR (Homo sapiens) [1]) is listed as 10200 nM.

For TIGIT (from UniProt Q495A1), the Kd (PVR (Homo sapiens) [2]) is given as 3200 nM and the Kd (nectin-2 (Homo sapiens)) is given as 5800 nM.

B1: TIGIT-His eukaryotic protein, Q495A1 22-244 (receptor)
chain: MMTGTIETTGNISAEKGGSIILQCHLSSTTAQVTQVNWEQQDQLLAICNADLGWHISPSFKDRVAPGPGLGLTLQSLTVNDTGEYFCIYHTYPDGTYTGRIFLEVLESSVAEHGARFQIP
modifications: here or on the partner: expressed in eukaryotic cells (glycosylated); His tag omitted; construct limits not given, so the mature extracellular domain (UniProt topology) is used by convention
B1 gave a Kd [3] of 1150 nM.

B2: TIGIT-His eukaryotic protein (receptor)
chain: MMTGTIETTGNISAEKGGSIILQCHLSSTTAQVTQVNWEQQDQLLAICNADLGWHISPSFKDRVAPGPGLGLTLQSLTVNDTGEYFCIYHTYPDGTYTGRIFLEVLESSVAEHGARFQIP
modifications: expressed in eukaryotic cells (glycosylated); His tag omitted; construct limits not given, so the mature extracellular domain (UniProt topology) is used by convention
For B2, the Kd [4] was 58 nM, the Kd [5] was 328 nM and the Kd [6] was 549 nM. The Kd [7] was 16 nM.

Source: PMC7869511, “Computer-aided design of PVR mutants with enhanced binding affinity to TIGIT” (Cell Communication and Signaling : CCS, 2021)
